The target of this test is SH2 domain (143-249) of CSRC (UniProt P12931). The test can be described thus: ITC. A general note: ITC needs no label: the signal is the heat of the interaction.

Usually stoichiometry N stands for the number of molecules, sites or subunits per partner or assembly.

Take “human calmodulin (from UniProt P0DP23 1-149) (natural protein)”: the stoichiometry N came out at 1.

The values above are taken from PMC4747798.
